Source: paper PMC11430399, “Cold-induced degradation of core clock proteins implements temperature compensation in the Arabidopsis circadian clock” (Science Advances, 2024)

Target: T1, LOV KELCH PROTEIN 2 fused with GFP (LKP2-GFP) (Arabidopsis thaliana, UniProt Q8W420 1-611)
T1 construct: LKP2, Arabidopsis thaliana, AT2G18915; Own promoter-driven genomic LKP2; source: Arabidopsis 35Sp:PRR5-F/lkp2-cr3/LKP2-GFP transgenic seedlings, in protein extract
Test: co-IP; LKP2-GFP immunoprecipitated with anti-GFP antibodies from 35Sp:PRR5-F/lkp2-cr3/LKP2-GFP seedlings kept at 12° or 28°C for 24 hours with MG132; PRR5-FLAG detected by Western blot; three biological replicates
Conditions: partners not purified

T1 sequence (Q8W420 whole entry, the tested form may be a part): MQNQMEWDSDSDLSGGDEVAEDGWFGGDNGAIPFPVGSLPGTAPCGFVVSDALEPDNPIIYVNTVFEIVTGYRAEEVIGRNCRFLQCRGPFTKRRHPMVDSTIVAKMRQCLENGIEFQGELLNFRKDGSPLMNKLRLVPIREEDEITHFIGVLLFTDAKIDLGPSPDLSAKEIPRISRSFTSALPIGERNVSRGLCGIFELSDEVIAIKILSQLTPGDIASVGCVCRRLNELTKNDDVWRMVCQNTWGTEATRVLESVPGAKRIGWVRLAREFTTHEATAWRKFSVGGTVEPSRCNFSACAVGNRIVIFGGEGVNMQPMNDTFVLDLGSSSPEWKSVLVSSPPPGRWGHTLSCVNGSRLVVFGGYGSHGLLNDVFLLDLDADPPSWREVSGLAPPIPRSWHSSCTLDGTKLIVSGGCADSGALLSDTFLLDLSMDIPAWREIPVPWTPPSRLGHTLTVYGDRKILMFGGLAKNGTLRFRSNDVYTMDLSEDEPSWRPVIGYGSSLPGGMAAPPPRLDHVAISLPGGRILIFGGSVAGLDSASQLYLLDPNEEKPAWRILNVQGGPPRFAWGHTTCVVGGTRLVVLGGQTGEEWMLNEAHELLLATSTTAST

fold of co-immunoprecipitated PRR5-FLAG at 12°C against 28°C: 15.9 fold
B1: PSEUDO-RESPONSE REGULATOR 5 with a C-terminal triple FLAG tag (PRR5-FLAG) (natural protein, Arabidopsis thaliana, UniProt Q6LA42 1-558, looked up)
chain: MTSSEEVVEVTVVKAPEAGGGKLSRRKIRKKDAGVDGLVKWERFLPKIALRVLLVEADDSTRQIIAALLRKCSYRVAAVPDGLKAWEMLKGKPESVDLILTEVDLPSISGYALLTLIMEHDICKNIPVIMMSTQDSVNTVYKCMLKGAADYLVKPLRRNELRNLWQHVWRRQTSLAPDSFPWNESVGQQKAEGASANNSNGKRDDHVVSGNGGDAQSSCTRPEMEGESADVEVSARDAVQMECAKSQFNETRLLANELQSKQAEAIDFMGASFRRTGRRNREESVAQYESRIELDLSLRRPNASENQSSGDRPSLHPSSASAFTRYVHRPLQTQCSASPVVTDQRKNVAASQDDNIVLMNQYNTSEPPPNAPRRNDTSFYTGADSPGPPFSNQLNSWPGQSSYPTPTPINNIQFRDPNTAYTSAMAPASLSPSPSSVSPHEYSSMFHPFNSKPEGLQDRDCSMDVDERRYVSSATEHSAIGNHIDQLIEKKNEDGYSLSVGKIQQSLQREAALTKFRMKRKDRCYEKKVRYESRKKLAEQRPRIKGQFVRQVQSTQAP
notes: PRR5, Arabidopsis thaliana; source: Arabidopsis 35Sp:PRR5-F transgenic seedlings (also 35Sp:PRR5-F/lkp2-cr3/LKP2-GFP), in protein extract; not shown: 3xFLAG, C-terminal, kept
